# Measured values from US20150210998A1.
# Experiments:
# [1] = target: His6-E6AP ligase (full-length, baculovirus-expressed) (human) (UniProt Q05086); assay: non-competitive inhibition with respect to [UbcH7]o of His6-E6AP chain formation
# [2] = target: His6-E6AP ligase (full-length, baculovirus-expressed) (human) (UniProt Q05086); assay: concentration dependence of inhibition of E6AP-catalyzed polyubiquitin chain formation
# [3] = target: His6-E6AP ligase (full-length, baculovirus-expressed) (human) (UniProt Q05086); assay: activation kinetics of His6-E6AP-catalyzed 125I-polyubiquitin chain formation (non-essential activator, double reciprocal plot)
# [4] = target: GST-E6APR626A (human) (UniProt Q05086); assay: cell-based or functional assay
# GST-E6APR626A (human), sequence (Q05086 other isoform, or with tags, fused parts or gaps): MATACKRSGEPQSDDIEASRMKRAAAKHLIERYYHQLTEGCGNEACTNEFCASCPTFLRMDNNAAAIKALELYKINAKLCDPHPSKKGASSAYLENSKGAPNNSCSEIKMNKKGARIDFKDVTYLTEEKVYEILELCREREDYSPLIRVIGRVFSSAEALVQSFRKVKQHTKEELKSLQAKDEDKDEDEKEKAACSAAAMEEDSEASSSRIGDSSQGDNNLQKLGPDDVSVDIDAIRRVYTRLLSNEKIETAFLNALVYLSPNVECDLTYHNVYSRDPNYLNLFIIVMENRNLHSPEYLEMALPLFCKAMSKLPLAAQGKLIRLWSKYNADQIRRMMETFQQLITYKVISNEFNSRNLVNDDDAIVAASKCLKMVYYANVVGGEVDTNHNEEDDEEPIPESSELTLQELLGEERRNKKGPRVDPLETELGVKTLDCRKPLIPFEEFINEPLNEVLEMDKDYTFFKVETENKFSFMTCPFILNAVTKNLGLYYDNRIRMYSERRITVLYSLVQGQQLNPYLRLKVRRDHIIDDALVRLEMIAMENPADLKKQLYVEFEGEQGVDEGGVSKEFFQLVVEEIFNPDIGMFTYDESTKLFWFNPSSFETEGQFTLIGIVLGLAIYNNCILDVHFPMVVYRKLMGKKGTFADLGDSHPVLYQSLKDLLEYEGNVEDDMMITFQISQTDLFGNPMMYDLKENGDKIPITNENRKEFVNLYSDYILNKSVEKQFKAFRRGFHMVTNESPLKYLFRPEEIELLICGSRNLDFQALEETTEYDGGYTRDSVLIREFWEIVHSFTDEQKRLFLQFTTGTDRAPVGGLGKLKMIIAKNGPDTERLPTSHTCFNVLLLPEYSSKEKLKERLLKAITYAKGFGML
# [5] = target: GST-E6APY533A (human) (UniProt Q05086); assay: cell-based or functional assay
# GST-E6APY533A (human), sequence (Q05086 other isoform, or with tags, fused parts or gaps): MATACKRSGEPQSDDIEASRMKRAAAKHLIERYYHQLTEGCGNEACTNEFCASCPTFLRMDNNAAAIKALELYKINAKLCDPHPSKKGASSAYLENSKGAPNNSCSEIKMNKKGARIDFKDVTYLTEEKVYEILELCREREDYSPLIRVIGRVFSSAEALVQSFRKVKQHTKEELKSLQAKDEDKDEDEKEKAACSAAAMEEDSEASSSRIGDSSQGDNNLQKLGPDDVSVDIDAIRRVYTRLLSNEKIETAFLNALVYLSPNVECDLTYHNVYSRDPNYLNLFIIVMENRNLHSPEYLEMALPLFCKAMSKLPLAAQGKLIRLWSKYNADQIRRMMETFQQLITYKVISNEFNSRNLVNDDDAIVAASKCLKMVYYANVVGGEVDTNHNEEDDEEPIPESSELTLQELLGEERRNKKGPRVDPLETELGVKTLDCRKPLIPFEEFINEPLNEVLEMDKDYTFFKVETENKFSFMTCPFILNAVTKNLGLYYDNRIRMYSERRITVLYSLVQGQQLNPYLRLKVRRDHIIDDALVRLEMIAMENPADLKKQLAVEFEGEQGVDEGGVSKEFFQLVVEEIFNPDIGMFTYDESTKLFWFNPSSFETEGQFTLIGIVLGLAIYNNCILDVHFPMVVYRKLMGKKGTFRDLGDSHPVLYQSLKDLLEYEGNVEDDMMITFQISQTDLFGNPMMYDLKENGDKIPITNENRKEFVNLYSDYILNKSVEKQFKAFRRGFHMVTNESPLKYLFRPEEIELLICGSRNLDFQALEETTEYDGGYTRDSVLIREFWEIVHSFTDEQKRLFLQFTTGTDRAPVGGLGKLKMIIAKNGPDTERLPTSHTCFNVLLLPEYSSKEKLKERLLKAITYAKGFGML
# [6] = target: His6-E6AP ligase (full-length, baculovirus-expressed) (human) (UniProt Q05086); assay: cell-based or functional assay
# [7] = target: His6-E6AP ligase (full-length, baculovirus-expressed) (human) (UniProt Q05086); assay: non-competitive inhibition with respect to [UbcH7]o of E6AP chain formation
# [8] = target: GST-E6AP ligase (wild-type, bacterially expressed fusion protein) (human) (UniProt Q05086); assay: inhibition of GST-E6AP-catalyzed 125I-polyubiquitin chain formation
# [9] = target: GST-E6AP ligase (wild-type, bacterially expressed fusion protein) (human) (UniProt Q05086); assay: calculated from the Ki of inhibition of chain formation
# [10] = target: GST-E6AP ligase (wild-type, bacterially expressed fusion protein) (human) (UniProt Q05086); assay: inhibition of GST-E6AP-catalyzed 125I-polyubiquitin chain formation, nonlinear hyperbolic regression
# E6AP-HectC820A (thrombin-processed), sequence (Q05086 473-875 C843A limits assumed): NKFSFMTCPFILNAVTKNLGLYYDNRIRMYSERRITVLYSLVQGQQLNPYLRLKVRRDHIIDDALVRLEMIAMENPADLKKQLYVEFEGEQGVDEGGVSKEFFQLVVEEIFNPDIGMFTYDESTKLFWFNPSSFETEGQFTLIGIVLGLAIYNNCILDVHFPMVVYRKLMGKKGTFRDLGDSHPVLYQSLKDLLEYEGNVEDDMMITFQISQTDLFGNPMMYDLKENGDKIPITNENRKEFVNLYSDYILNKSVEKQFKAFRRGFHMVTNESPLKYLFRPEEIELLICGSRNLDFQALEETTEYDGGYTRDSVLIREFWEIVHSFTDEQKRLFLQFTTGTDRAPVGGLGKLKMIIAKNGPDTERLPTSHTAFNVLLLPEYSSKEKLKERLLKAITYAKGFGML
# GST-E6AP-HectC820A, sequence (Q05086 473-875 C843A): as the sequence (Q05086 473-875 C843A limits assumed) above
substance,measurement,setting,value
E6(HPV16)Δ91 N-terminal domain (from UniProt P03126 1-91),Ki,[1],6 µM
same,Ki,[2],4 µM
"HPV16 E6 protein (recombinant, full-length) (from UniProt P03126 1-158)",Kd,[3],0.0015 µM
same,increase in rate of 125I-polyubiquitin chain formation with 20 nM E6,[4],13 fold
same,increase in rate of 125I-polyubiquitin chain formation with 20 nM E6,[5],8 fold
same,stimulation in E6AP ligase activity at saturating E6 protein,[6],14 fold
E6(HPV16)Ct C-terminal domain (from UniProt P03126 89-158),Ki,[7],4 µM
E6AP-HectC820A (thrombin-processed) (from UniProt Q05086 450-852),Ki,[8],27 µM
E6APΔ495 (thrombin-processed) (from UniProt Q05086 1-495),ΔGbinding,[9],-6.4 kcal/mol
same,Ki,[10],19 µM
GST-E6APΔ495 (from UniProt Q05086 1-495),ΔGbinding,[9],-6.7 kcal/mol
same,Ki,[10],12 µM
GST-E6AP-HectC820A (from UniProt Q05086 450-852),Ki,[8],31 µM
